Results as given in US20160264649A1.

Tests used:
Assay in all cases: cell-based or functional assay
[1] = target: HIV-1 MGRM-A-002 Env (HIV-1)
[2] = target: HIV-1 MGRM-A-008 Env (HIV-1)
[3] = target: HIV-1 MGRM-AG-003 Env (HIV-1)
[4] = target: HIV-1 MGRM-AG-001 Env (HIV-1)
[5] = target: HIV-1 93UG077 Env (HIV-1)
[6] = target: HIV-1 MGRM-AE-007 Env (HIV-1)
[7] = target: HIV-1 MGRM-A-004 Env (HIV-1)
[8] = target: HIV-1 MGRM-AG-011 Env (HIV-1)
[9] = target: HIV-1 MGRM-A-012 Env (HIV-1)
[10] = target: HIV-1 MGRM-AE-005 Env (HIV-1)
[11] = target: HIV-1 CMU02 Env (HIV-1)
[12] = target: HIV-1 Env of isolate MG RM-C-027 (subtype C) (HIV-1)
[13] = target: HIV-1 Env of isolate MG RM-C-024 (subtype C) (HIV-1)
[14] = target: HIV-1 93WR029 Env (HIV-1)
[15] = target: HIV-1 92WR024 Env (HIV-1)
[16] = target: HIV-1 MGRM-AE-006 Env (HIV-1)
[17] = target: HIV-1 94UG103 Env (HIV-1)
[18] = target: HIV-1 Env of isolate MG RM-C-022 (subtype C) (HIV-1)
[19] = target: HIV-1 MGRM-AE-003 Env (HIV-1)
[20] = target: HIV-1 MGRM-A-010 Env (HIV-1)
[21] = target: HIV-1 MGRM-A-001 Env (HIV-1)
[22] = target: HIV-1 92WR009 Env (HIV-1)
[23] = target: HIV-1 MGRM-AE-008 Env (HIV-1)
[24] = target: HIV-1 92RW008 Env (HIV-1)
[25] = target: HIV-1 MGRM-A-009 Env (HIV-1)
[26] = target: HIV-1 Env of isolate MG RM-C-020 (subtype C) (HIV-1)
[27] = target: HIV-1 MGRM-A-013 Env (HIV-1)
[28] = target: HIV-1 MGRM-A-007 Env (HIV-1)
[29] = target: HIV-1 92TH021 Env (HIV-1)
[30] = target: HIV-1 Env of isolate MG RM-C-025 (subtype C) (HIV-1)
[31] = target: HIV-1 MGRM-A-005 Env (HIV-1)
[32] = target: HIV-1 MGRM-AE-002 Env (HIV-1)
[33] = target: HIV-1 92UG031 Env (HIV-1)
[34] = target: HIV-1 MGRM-AG-006 Env (HIV-1)
[35] = target: HIV-1 MGRM-A-006 Env (HIV-1)
[36] = target: HIV-1 MGRM-A-011 Env (HIV-1)
[37] = target: HIV-1 92WR021 Env (HIV-1)
[38] = target: HIV-1 MGRM-AG-002 Env (HIV-1)
[39] = target: HIV-1 Env of isolate MG RM-C-023 (subtype C) (HIV-1)
[40] = target: HIV-1 MGRM-AE-001 Env (HIV-1)
[41] = target: HIV-1 MGRM-AG-013 Env (HIV-1)
[42] = target: HIV-1 Env of isolate MG RM-C-028 (subtype C) (HIV-1)
[43] = target: HIV-1 MGRM-AE-004 Env (HIV-1)
[44] = target: HIV-1 92WR020 Env (HIV-1)
[45] = target: HIV-1 VLGCA1 Env (HIV-1)
[46] = target: HIV-1 92WR026 Env (HIV-1)
[47] = target: HIV-1 MGRM-A-003 Env (HIV-1)
[48] = target: HIV-1 MGRM-AG-005 Env (HIV-1)
[49] = target: HIV-1 Env of isolate MG RM-C-026 (subtype C) (HIV-1)
[50] = target: HIV-1 MGRM-AG-008 Env (HIV-1)
[51] = target: HIV-1 94KE105 Env (HIV-1)
[52] = target: HIV-1 MGRM-A-014 Env (HIV-1)
[53] = target: HIV-1 MGRM-AG-012 Env (HIV-1)
[54] = target: HIV-1 MGRM-AG-009 Env (HIV-1)
[55] = target: HIV-1 92UG037 Env (HIV-1)
[56] = target: HIV-1 Env of isolate MG RM-C-019 (subtype C) (HIV-1)

5329_C19 (PGT-136) (antibody), sequence (VH): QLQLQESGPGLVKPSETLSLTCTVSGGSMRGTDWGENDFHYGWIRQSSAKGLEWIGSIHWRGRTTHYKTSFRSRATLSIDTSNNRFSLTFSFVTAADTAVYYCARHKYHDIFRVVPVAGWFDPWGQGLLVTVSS
5329_C19 (PGT-136) (antibody), sequence (VL): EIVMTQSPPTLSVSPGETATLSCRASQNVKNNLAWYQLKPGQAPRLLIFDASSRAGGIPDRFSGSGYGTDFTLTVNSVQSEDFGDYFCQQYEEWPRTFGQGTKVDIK

Substance: 5147_N06 (PGT-130) (antibody)
- IC50 [1]: 0.01 µg/mL
- IC50 [2]: > 50 µg/mL
- IC50 [3]: 0.041 µg/mL
- IC50 [4]: > 50 µg/mL
- IC50 [5]: 21.4 µg/mL
- IC50 [6]: 0.083 µg/mL
- IC50 [7]: > 50 µg/mL
- IC50 [8]: > 50 µg/mL
- IC50 [9]: > 50 µg/mL
- IC50 [10]: 0.006 µg/mL
- IC50 [11]: > 50 µg/mL
- IC50 [12]: 0.008 µg/mL
- IC50 [13]: > 50 µg/mL
- IC50 [14]: 34.3 µg/mL
- IC50 [15]: > 50 µg/mL
- IC50 [16]: 0.009 µg/mL
- IC50 [17]: 1.4 µg/mL
- IC50 [18]: 0.127 µg/mL
- IC50 [19]: 0.337 µg/mL
- IC50 [20]: 0.005 µg/mL
- IC50 [21]: > 50 µg/mL
- IC50 [22]: 1.27 µg/mL
- IC50 [23]: > 50 µg/mL
- IC50 [24]: 0.089 µg/mL
- IC50 [25]: 0.308 µg/mL
- IC50 [26]: > 50 µg/mL
- IC50 [27]: > 50 µg/mL
- IC50 [28]: > 50 µg/mL
- IC50 [29]: 0.009 µg/mL
- IC50 [30]: > 50 µg/mL
- IC50 [31]: > 50 µg/mL
- IC50 [32]: 1.53 µg/mL
- IC50 [33]: > 50 µg/mL
- IC50 [34]: 0.009 µg/mL
- IC50 [35]: > 50 µg/mL
- IC50 [36]: > 50 µg/mL
- IC50 [37]: 0.004 µg/mL
- IC50 [38]: > 50 µg/mL
- IC50 [39]: 0.151 µg/mL
- IC50 [40]: 1 µg/mL
- IC50 [41]: 0.01 µg/mL
- IC50 [42]: > 50 µg/mL
- IC50 [43]: 2.43 µg/mL
- IC50 [44]: 0.039 µg/mL
- IC50 [45]: > 50 µg/mL
- IC50 [46]: 0.037 µg/mL
- IC50 [47]: > 50 µg/mL
- IC50 [48]: 0.54 µg/mL
- IC50 [49]: 0.036 µg/mL
- IC50 [50]: > 50 µg/mL
- IC50 [51]: 0.004 µg/mL
- IC50 [52]: 0.161 µg/mL
- IC50 [53]: > 50 µg/mL
- IC50 [54]: 9.46 µg/mL
- IC50 [55]: 0.061 µg/mL
- IC50 [56]: 0.01 µg/mL

Substance: 5329_C19 (PGT-136) (antibody)
- IC50 [1]: > 50 µg/mL
- IC50 [2]: > 50 µg/mL
- IC50 [3]: > 50 µg/mL
- IC50 [4]: > 50 µg/mL
- IC50 [5]: > 50 µg/mL
- IC50 [6]: > 50 µg/mL
- IC50 [7]: > 50 µg/mL
- IC50 [8]: > 50 µg/mL
- IC50 [9]: > 50 µg/mL
- IC50 [10]: > 50 µg/mL
- IC50 [11]: > 50 µg/mL
- IC50 [12]: > 50 µg/mL
- IC50 [13]: > 50 µg/mL
- IC50 [14]: > 50 µg/mL
- IC50 [15]: > 50 µg/mL
- IC50 [16]: > 50 µg/mL
- IC50 [17]: > 50 µg/mL
- IC50 [18]: > 50 µg/mL
- IC50 [19]: > 50 µg/mL
- IC50 [20]: > 50 µg/mL
- IC50 [21]: > 50 µg/mL
- IC50 [22]: > 50 µg/mL
- IC50 [23]: > 50 µg/mL
- IC50 [24]: > 50 µg/mL
- IC50 [25]: > 50 µg/mL
- IC50 [26]: > 50 µg/mL
- IC50 [27]: > 50 µg/mL
- IC50 [28]: > 50 µg/mL
- IC50 [29]: > 50 µg/mL
- IC50 [30]: > 50 µg/mL
- IC50 [31]: > 50 µg/mL
- IC50 [32]: > 50 µg/mL
- IC50 [33]: > 50 µg/mL
- IC50 [34]: 29.1 µg/mL
- IC50 [35]: > 50 µg/mL
- IC50 [36]: > 50 µg/mL
- IC50 [37]: > 50 µg/mL
- IC50 [38]: > 50 µg/mL
- IC50 [39]: 3.2 µg/mL
- IC50 [40]: > 50 µg/mL
- IC50 [41]: > 50 µg/mL
- IC50 [42]: 33.7 µg/mL
- IC50 [43]: > 50 µg/mL
- IC50 [44]: 2.33 µg/mL
- IC50 [45]: > 50 µg/mL
- IC50 [46]: > 50 µg/mL
- IC50 [47]: > 50 µg/mL
- IC50 [48]: > 50 µg/mL
- IC50 [49]: 0.006 µg/mL
- IC50 [50]: > 50 µg/mL
- IC50 [51]: > 50 µg/mL
- IC50 [52]: > 50 µg/mL
- IC50 [53]: > 50 µg/mL
- IC50 [54]: > 50 µg/mL
- IC50 [55]: > 50 µg/mL
- IC50 [56]: 20.1 µg/mL
